Experimental data published in the RNAGym collection of RNA variant scans (doi:10.1073/pnas.2313332121).
This sample holds only a part of the variants without activity.

B1: TPR 5TU (parent)
chain: GGAUCUUCUCGAUCUAACAAAAAAGACAAAUCUGCCACAAAGCUUGAGAGCAUCUUCGGAUGCAGAGGCGGCAGCCUUCGGUGGCGCGAUAGCGCCAACGUUCUCAACUAUGACACGCAAAACGCGUGCUCCGUUGAAUGGAGUUUAUCAUG

Variants of: B1
Assay: polymerase ribozyme fitness, log enrichment relative to wild type (log ratio); higher = more active; in vitro selection for triplet polymerase activity
How it was run: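 In triplicate, a single round of in vitro selection was run on each mutant library, PCR-built and transcribed, covering one subunit of a heterodimeric triplet polymerase ribozyme. Frozen incubation at −7 °C followed annealing with a biotinylated primer, partner subunit and triplets, and extended constructs were then gel-excised, streptavidin-captured and taken through RT-PCR. Fitness is the logarithm of genotype enrichment over wild-type enrichment, from inverse-variance-weighted replicate averages of Illumina-sequenced inputs and outputs. […] only genotypes with ≥10 input reads and ≥1 read per output were kept.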

| Variant | polymerase ribozyme fitness (log ratio) |
| --- | --- |
| GGAUCUUCUCGAUCUAACAAAAAAGACAAAUCUGCCACAAAGCUUGAGAGCAUCUUCGGAUGCAGGGGCGGCAGCCAUCGGUUGCGCGAUAGCGCCAACGUUCACAACUAUGACACUCAAAACGCGUGCUCCGUUGAAUGGAGUUUAUCAUG [A66G U77A G83U U104A G117U] | ≤ -4.2 |
| GGAUCUUCUCGAUCUAACAAAAAAGACAAAUCUGCCACAAAGCUUGAGAGCAUCUUCGGAUGCAGGGGCGGCAGCCUUCGUUGGCGGGAUAGCGCCAAUGUUCGCAACUAUGACACGCAAAACGCGUGCUCCGAUGAAUGGUGUUUAUCAUG [A66G G81U C87G C99U U104G U134A A142U] | ≤ -4.2 |
| GGAUCUUCUCGAUCUAACAAAAAAGACAAAUCUGCCACAAAGCUUGAGAGCAUCUUCGGAUGCAGGGGCGGCUGCCUUCGAUGGCGCGAUAUCGCCAACGUUCUCAACUACGACACGCAAAACGCGUGCUCCGUUGAAUGGAGUUUAUCAUG [A66G A73U G81A G92U U111C] | ≤ -4.2 |
| GGAUCUUCUCGAUCUAACAAAAAAGACAAAUCUGCCACAAAGCUUGAGAGCAUCUUCGGAUGCAGGGGCGGCAGCCUUCGGUGGCGCGAGAGGGCCAACGUUCUCAACUAUGACACGCAAAACGCGUGCUCCGUUGAAUGGAGUUUAUCAUG [A66G U90G C93G] | ≤ -4.2 |
| GGAUCUUCUCGAUCUAACAAAAAAGACAAAUCUGCCACAAAGCUUGAGAGCAUCUUCGGAUGCAGCGGCGGCAGCCUUCGGUGACGUGAUAGCGCCAACGUUCUCAACUAUGACACGCAAAACGCGUGCUCCGUUGAAUGGAGUUUAUCAUG [A66C G84A C87U] | ≤ -4.2 |
| GGAUCUUCUCGAUCUAACAAAAAAGACAAAUCUGCCACAAAGCUUGAGAGCAUCUUCGGAUGCAGGGGCGGCAGCCUUCGGUGGCGCGAUAGUGCCAACGUUCUCAAUUAUGACACGCAAAACGCGUGCUCGGUUGAAUGGAGUUUAUAAUG [A66G C93U C108U C132G C149A] | ≤ -4.2 |
| GGAUCUUCUCGAUCUAACAAAAAAGACAAAUCUGCCACAAAGCUUGAGAGCAUCUUCGGAUGCAUAGGCGGCAGCCUUCGGUGGCGCGAUAGCACCAACGUUCUCAACUAUGACACGCAAAACGCGUGCUCCGUUGAAUGGAGUUUAUCAUG [G65U G94A] | ≤ -4.2 |
| GGAUCUUCUCGAUCUAACAAAAAAGACAAAUCUGCCACAAAGCUUGAGAGCAUCUUCGGAUGCAGGGGAGGCAGCCUUCGGUGUCGCGAUAGCGCCAACGUUCUCAACUAUGACACGCAAAACGCGUGCUCCGUUGAUUGGAGUUUAUCAUG [A66G C69A G84U A138U] | ≤ -4.2 |
| GGAUCUUCUCGAUCUAACAAAAAAGACAAAUCUGCCACAAAGCUUGAGAGCAUCUUCGGAUGCAGCGGCGGCAGCCUUCGGUGGCGCGAUCGCGCCAACGUUCUCAACUAUGACACGCAAAACGCGUGCUCCGUUGAAUGGAGUUUAUCAUG [A66C A91C] | ≤ -4.2 |
| GGAUCUUCUCGAUCUAACAAAAAAGACAAAUCUGCCACAAAGCUUGAGAGCAUCUUCGGAUGCAGGGGCGGCAGCUUUCGGUGGAGCGAUAGCGCUAACGUUCUCAACUAUGACACGCAAAACGCGUGCUCCGUUGAAUGGAGUUUAUCAUG [A66G C76U C85A C96U] | ≤ -4.2 |
| GGAUCUUCUCGAUCUAACAAAAAAGACAAAUCUGCCACAAAGCUUGAGAGCAUCUUCGGAUGCAGGGGCGGCAGCCUUCGGUGGCGCGAUAGUGCCAACGUUCUCAUCUAUGACACGCAAAACGCGUGCUCCGUUGAUAGGAGUUUAUCAUG [A66G C93U A107U A138U U139A] | ≤ -4.2 |
| GGAUCUUCUCGAUCUAACAAAAAAGACAAAUCUGCCACAAAGCUUGAGAGCAUCUUCGGAUGCAGGGGCGGCAGCCUUCGGUGGCGCGUUAGUGGCAACGUUCUCAACUAUGACACGCAAAACGCGUGCUCCGUUGAAUGGAGUUUAUCAUG [A66G A89U C93U C95G] | ≤ -4.2 |
| GGAUCUUCUCGAUCUAACAAAAAAGACAAAUCUGCCACAAAGCUUGAGAGCAUCUUCGGAUGCAGGGGCGGCAGCCUUCGGUGGCGCGAUAGCGCCAACGUUCUUAACUAUGACACGCAAAACGCGUGCUCCGUUGAAUGGAGUUUAUCAUG [A66G C105U] | -3.63 |
| GGAUCUUCUCGAUCUAACAAAAAAGACAAAUCUGCCACAAAGCUUGAGAGCAUCUUCGGAUGCAGGGGCGGCAGCCUUCGGUUGCGCGAUAGCGCCAACGUUCUCAACUAUGACACGCAAAACGCGUGCUCCGUUGAAUGGAGUUUAUCAUG [A66G G83U] | -3.62 |
| GGAUCUUCUCGAUCUAACAAAAAAGACAAAUCUGCCACAAAGCUUGAGAGCAUCUUCGGAUGCAGGGGCGGCAGCCUUCGGUGGCGCGAUAGCGCCAACGUUCUCAACUAUGACACGCAAAACGCGUGCUCCGUUGAAUGGAGUUUAUCAUG [A66G] | -2.32 |
| GGAUCUUCUCGAUCUAACAAAAAAGACAAAUCUGCCACAAAGCUUGAGAGCAUCUUCGGAUGCAGCGGCGGCAGCCUUCGGUGGCGCGAUAGCGCCAACGUUCUCAACUAUGACACGCAAAACGCGUGCUCCGUUGAAUGGAGUUUAUCAUG [A66C] | -4.16 |
| GGAUCUUCUCGAUCUAACAAAAAAGACAAAUCUGCCACAAAGCUUGAGAGCAUCUUCGGAUGCAGGGGCGGCAGCCUUCGGUGGCGCGAUAGCGCCAACGUUCUCAACUAUGACACGCAAAAGGCGUGCUCCGUUGAAUGGAGUUUAUCAUG [A66G C123G] | ≤ -4.2 |
| GGAUCUUCUCGAUCUAACAAAAAAGACAAAUCUGCCACAAAGCUUGAGAGCAUCUUCGGAUGCAGCGGCGGCAGCCUUCGGUGGCGCGAUACCGCCAACGUUCUCAACUAUGAUACGCAAAACGCGUGCUCCGUUGAAUGGAGUUUAUCAUG [A66C G92C C114U] | ≤ -4.2 |
| GGAUCUUCUCGAUCUAACAAAAAAGACAAAUCUGCCACAAAGCUUGAGAGCAUCUUCGGAUGCAGCGGCGACGGCCUUCGGUCGCGCGAUAGCGCCAACGUUCUCAACUAUGACACGCAAAACGCGUGCUCCGUUGAAUGGAGUUUAUCAAG [A66C G71A A73G G83C U151A] | ≤ -4.2 |
